Experimental data: paper PMC7181697

Tests used:
REV7^K129A (human) = REV7^K129A (human) (UniProt Q9UI95); test: ITC; in the context of MBP-SHLD2(1-60) (Supplementary Fig. 5a, b)
MBP-SHLD2(1–60) (human) = MBP-SHLD2(1–60) (human) (UniProt Q86V20); test: ITC; ITC200, 25 °C, 20 mM Tris pH 8.0, 150 mM NaCl, 1% glycerol, 1 mM TCEP; one set of sites model
Sequence of MBP-SHLD2(1–60) (human) (Q86V20 1-60): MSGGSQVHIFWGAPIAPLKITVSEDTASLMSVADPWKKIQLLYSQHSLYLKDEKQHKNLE

Sequence of REV7^K129A (human) (Q9UI95 whole entry K129A): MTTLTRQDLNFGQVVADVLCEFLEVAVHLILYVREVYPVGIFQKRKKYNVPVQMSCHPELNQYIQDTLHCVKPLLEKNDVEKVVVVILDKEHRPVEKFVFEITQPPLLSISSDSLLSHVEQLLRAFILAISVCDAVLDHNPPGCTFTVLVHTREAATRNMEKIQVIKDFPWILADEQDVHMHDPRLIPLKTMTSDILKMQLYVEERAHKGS

Row | Kd (REV7^K129A (human)) [nM] | Kd (MBP-SHLD2(1–60) (human)) [nM] | Substance
1 | 410 |  | REV7^K129A-SHLD3(1–82) (from UniProt Q9UI95 1-211; Q6ZNX1 1-82) (complex)
2 |  | 59 | REV7^W171A-SHLD3(1–82) (from UniProt Q9UI95 1-211; Q6ZNX1 1-82) (complex)
3 |  | 600 | REV7^Y63A-SHLD3(1–82) (from UniProt Q9UI95 1-211; Q6ZNX1 1-82) (complex)
